Assay [1] addresses clade 1a RBDs (SARS-CoV-1-related sarbecoviruses), yeast-displayed. The assay can be described thus: flow cytometry on cells. A general note: A flow cytometer gives signals particle by particle.
Assay [2] deals with clade 1b RBDs (SARS-CoV-2-related sarbecoviruses), yeast-displayed. Briefly: flow cytometry on cells.

B1: C68.61 (antibody, V domains shown)
VH: EVQLVQSGAEVKKPGESLKISCKGSAYIFTRYWIGWVRQMPGKGLEWMGIIYPGDSDTRYSPSFQGQVTISADKSISTAYLQWSSLKASDTAMYYCARSGTTNYFDYWGQGTLVTVSS
VL: DIQLTQSPSTLSASVGDRVTITCRASQSISSWLAWYQQKPGKAPKLLIYDASSLDSGVPSRFSGSGSGTDFTLTISSLQPDDFATYYCQQFNSYWTFGQGTKVEIK
Turning to B1, the geomean EC50 across the clade was 1.9 ng/mL in assay [1] and 0.25 ng/mL in assay [2].

(Values after PMC11542851.)
